The values that follow come from the supplement of paper PMC12764529.

Series [1] can be described thus: folding stability dG unfold from chymotrypsin proteolysis; higher = more stable. Here is the method:
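Folding stability of de novo designed mini-proteins (<80 aa, no Cys; designed by TrROS, TrMRF, ProteinMPNN and the joint model) was measured by cDNA display proteolysis with trypsin and chymotrypsin. Each protease was used at 11 concentrations in a threefold dilution series plus a no-protease condition. K50 was inferred by Bayesian fitting of sequencing counts, and dG unfold was derived against a sequence-predicted unfolded-state K50 (Tsuboyama et al. method). Sequences shown include variable-length N-terminal GS-type padding (SAGGSAGG...) inside a display construct carrying a PA tag. Rows were kept only if the AF2 dimer inter-PAE was >15, to exclude likely homo-oligomers.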

Series [2] is described as follows: folding stability dG unfold (combined trypsin and chymotrypsin); higher = more stable. The gist of the method:
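Sequencing followed digestion of designed mini-proteins with trypsin and chymotrypsin, each at 11 concentrations in threefold dilutions together with a no-protease condition. The mini-proteins were under 80 residues, had no cysteine, sat in a PA-tagged cDNA display construct, and were kept only if AlphaFold2 dimer inter-PAE was above 15. From the counts, Bayesian fitting gave K50, and unfolding free energy was derived against a sequence-predicted unfolded-state K50 and a shared folded-state K50, per protease or combined.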

± gives the half width of the 95% confidence interval.

As for “SAGGSAGGSAGVKRIKDVRNPNGNKIRDVEVEEENDPNGNKYLTIKARHKNGNEQEHTLPSAGGSAGGSAGG [r11_810_TrROS]”, the “folding stability dG unfold” value was 0.568 ± 0.25 kcal/mol in series [1] and -0.18 ± 0.75 kcal/mol in series [2].

On to “SAGGSAGGSAGVRIPPGYLVRIKFPGNGEREIPIDTPEIEIPGIENVTIEVYPLKKGEPISAGGSAGGSAGG [r11_43_TrROS]”, for which the “folding stability dG unfold” value in series [1] amounted to 0.553 ± 0.19 kcal/mol; in series [2], 0.167 ± 0.2 kcal/mol.

For the sequence “SAGGSAGGSAGWNIEPKPEPERDPDGNPQPRMEIKIRVPPPTAEQAQEWAKENGLPVTVYSAGGSAGGSAGG [r17_114_TrROS]”, the entries for the “folding stability dG unfold” value in series [1] and in series [2] were -0.0462 ± 0.17 kcal/mol and less than -1 kcal/mol, respectively.

With “SAGGSAGGSAILRIKLEHPKSGKPMTWVIPPEMNIEQIADMLMEQHPNAEIKDIEWVPPNQISAGGSAGGSA [r18_242_TrROS]”, the “folding stability dG unfold” value in series [1] is 0.3 ± 0.12 kcal/mol; in series [2], -0.0546 ± 0.097 kcal/mol.

On to “SAGGSAGGSAKRTIFIPAEDLQKNPDNAEELAQTIAEEFNDNGKEIKIEQHPDGGVVIELKSAGGSAGGSAG [r3_75_TrROS]”, for which the “folding stability dG unfold” value was -0.3 ± 0.1 kcal/mol in series [1] and less than -1 kcal/mol in series [2].

Take “SAGGSAGGSAKSALDQMKGQKFTFYHPGGEQPVPITIEPDKDDNFVVKFPNKKPYPMPIDDISAGGSAGGSA [r18_169_TrROS]”: the entries for the “folding stability dG unfold” value in series [1] and in series [2] were -1.29 ± 0.81 kcal/mol and less than -1 kcal/mol, respectively.

In the case of “SAGGSAGGSAMKLLETKVSRSLVPETGVVVTPVTTTTLGPGGKREVIEETEVRVLPPDAPPPSAGGSAGGSA [r18_95_JUSTAS]”, the entries for the “folding stability dG unfold” value in series [1] and in series [2] were -0.625 ± 0.19 kcal/mol and less than -1 kcal/mol, respectively.

As to “SAGGSAGGSAMLTLRFELPDGSERELRLPGVTPEEAAALAAELARREGVARVEVYPPGVERSAGGSAGGSAG [r3_160_JUSTAS]”, the “folding stability dG unfold” value in series [1] is 0.532 ± 0.26 kcal/mol; in series [2], -0.823 ± 0.44 kcal/mol.

Consider “SAGGSAGGSAMPERRAAEAAAAPPPVPKVVITSPGSEEEARRIEEELRAAPGVEEVTVTVVPRLSAGGSAGG [r6_285_JUSTAS]”, for which the figures for the “folding stability dG unfold” value in series [1] and in series [2] were 0.804 ± 0.045 kcal/mol and 0.0774 ± 0.16 kcal/mol, respectively.

For “SAGGSAGGSAMPLGVTTSTSTSLLPSNSRLVTETITTPGTTSTTTTLLTPPPGEVLETTTTSSAGGSAGGSA [r18_459_JUSTAS]”, the “folding stability dG unfold” value in series [1] is 0.997 ± 0.027 kcal/mol; in series [2], 0.526 ± 0.09 kcal/mol.

Take “SAGGSAGGSAPFENLPEDAKEVEITFDPSLSEEVRKALAEELKPRIEAQGIKYKFKIVPKSNLSAGGSAGGS [r12_456_JUSTAS]”: the figures for the “folding stability dG unfold” value in series [1] and in series [2] were -0.448 ± 0.59 kcal/mol and less than -1 kcal/mol, respectively.

Take “SAGGSAGGSAPGKHKTIEINGPGDVEEAVDYAKDEMPPGKPIHIRFNDEPITIPAEDAKKISAGGSAGGSAG [r3_50_TrROS]”: the “folding stability dG unfold” value in series [1] is 0.445 ± 0.047 kcal/mol; in series [2] it was -0.0642 ± 0.22 kcal/mol.

“SAGGSAGGSAPNIRAKIEPKPDPGGPKLTIDVEDPDNPELPAEEVAKALEEEFPPDKIEPVSAGGSAGGSAG [r3_226_TrROS]”: the “folding stability dG unfold” value in series [1] was -0.7 ± 0.083 kcal/mol; in series [2], less than -1 kcal/mol.

Take “SAGGSAGGSAPRLVRVRGPDGGERVIPVPPDVLADRIPPDVPVRVPVVREDGRFRFRVERGSAGGSAGGSAG [r3_86_TrMRF]”: the “folding stability dG unfold” value in series [1] is -0.819 ± 0.88 kcal/mol; in series [2], less than -1 kcal/mol.

For “SAGGSAGGSASLDPVVVTVTRYPTGVTTTTVSSRPGGEPVTTTTTYDPVSPVAPLPASRLASAGGSAGGSAG [r3_336_JUSTAS]”, the “folding stability dG unfold” value in series [1] was found to be 0.59 ± 0.032 kcal/mol; in series [2] it was 0.167 ± 0.12 kcal/mol.

With “SAGGSAGGSASLIVISPPGAPRTIPLEGLVEKGIPEREAAELLEKELGIEINLSEPGVIRAKSAGGSAGGSA [r18_7_JUSTAS]”, the “folding stability dG unfold” value in series [1] is 0.249 ± 0.044 kcal/mol; in series [2] it was -0.186 ± 0.12 kcal/mol.

As for “SAGGSAGGSASLVVVTTKPPNGPETVELTTDYPPDVRRVTTDPKTGATSEVVVLPADAVLPSAGGSAGGSAG [r3_356_JUSTAS]”, the “folding stability dG unfold” value in series [1] was 0.873 ± 0.06 kcal/mol; in series [2], 0.295 ± 0.2 kcal/mol.

For the sequence “SAGGSAGGSASMSTTEITVTELEEPGEGKRLVIETKSFTPEGKEIDSEKVEEEVREELGVKPSAGGSAGGSA [r18_332_JUSTAS]”, the “folding stability dG unfold” value is -0.0823 ± 0.079 kcal/mol in series [1] and -0.585 ± 0.24 kcal/mol in series [2].

On to “SAGGSAGGSAVEFTDPNGAEVLEIKPLPDGTTRVLTKLPGGEIPIVTYDPNTGKITTTLLPASAGGSAGGSA [r18_483_JUSTAS]”, for which the “folding stability dG unfold” value in series [1] is 0.135 ± 0.11 kcal/mol; in series [2], -0.251 ± 0.2 kcal/mol.

Turning to “SAGGSAGGSDIEIIINPNMSLEQAKKFANYLAQENNIPIEIEIIPPPKPEPEPERDPEDGKPKSAGGSAGGS [r12_159_TrROS]”, the “folding stability dG unfold” value in series [1] was -0.232 ± 0.36 kcal/mol; in series [2] it was less than -1 kcal/mol.

For the sequence “SAGGSAGGSDKDVKIKVDPERTPDGNYYYRIEIENGKEINIHMPPENMTPEDAKDFVKDIIKKSAGGSAGGS [r12_218_TrROS]”, the figures for the “folding stability dG unfold” value in series [1] and in series [2] were -0.44 ± 0.39 kcal/mol and less than -1 kcal/mol, respectively.
